Results published in patent US20260209384A1 (Stanford University, published 2026).

Columns and labels:
[1] = target: T1, recombinant human GPC2 (R&D Systems) (human, UniProt Q8N158 24-554, limits assumed, labelled with Dylight488 or Dylight650 in the flow cytometry assays; unlabelled in the ELISA); assay: flow cytometry, CAR T cells stained with fluorescently labelled recombinant GPC2
T1 construct: extracellular domain; also called hGPC2; human Glypican-2
T1 sequence (looked up): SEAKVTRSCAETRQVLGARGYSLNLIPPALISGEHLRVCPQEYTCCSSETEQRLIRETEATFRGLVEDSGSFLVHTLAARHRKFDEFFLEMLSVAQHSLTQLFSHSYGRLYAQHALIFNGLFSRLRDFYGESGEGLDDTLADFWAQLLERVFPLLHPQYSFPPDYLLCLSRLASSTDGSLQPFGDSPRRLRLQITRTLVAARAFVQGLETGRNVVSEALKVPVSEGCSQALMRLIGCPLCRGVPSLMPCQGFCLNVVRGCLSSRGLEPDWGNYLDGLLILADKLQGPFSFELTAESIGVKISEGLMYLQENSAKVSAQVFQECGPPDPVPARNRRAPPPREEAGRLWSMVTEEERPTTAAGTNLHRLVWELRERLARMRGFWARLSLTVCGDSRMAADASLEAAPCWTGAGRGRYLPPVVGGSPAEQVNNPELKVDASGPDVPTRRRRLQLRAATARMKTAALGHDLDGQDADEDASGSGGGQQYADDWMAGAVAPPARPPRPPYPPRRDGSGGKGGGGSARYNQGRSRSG
Excerpt: Primary human T cells were isolated from healthy donors using the RosetteSep Human T cell Enrichment kit (Stem Cell Technologies) using buffy coats were derived from the Stanford Blood Center and processed according to the manufacturer's protocol using Lymphoprep density gradient medium and SepMate-50 tubes. Isolated T cells were cryopreserved in CryoStor CS10 cryopreservation medium (Stem Cell Technologies). Cryopreserved T cells were thawed and activated with Human T-Expander CD3/CD28 Dynabeads (Gibco) at a 3:1 beads: cell ratio in AIM-V media supplemented with 5% FBS, 10 mM HEPES, 2 mM 1-glutamine, 100 U/mL penicillin, and 100 μg/mL streptomycin (Gibco) and with 100 IU/ml of recombinant IL-2 (Preprotech). T cells were transduced with retroviral vector on days 2 and 3 post activation and anti-CD3/CD28 beads were removed on day 5. CAR T-cells were maintained at 0.3-1×10⁶ cells per mL in T cell medium with IL2. CAR expression was assessed by Flow Cytometry after incubation with soluble, recombinant, human GPC2 (R&D systems) labelled with Dylight488 or Dylight650. CAR T cells were used for in vitro assays or transferred into mice on day 10 post activation.
Data was collected with an LSR Fortessa X-20 (BD Bioscience) and analyzed using the FlowJo software. Cells were harvested, washed twice with FACS buffer (PBS supplemented with 2% FBS and 0.4% 0.5 M EDTA) and stained for 30 min in the dark on ice. Cells were washed 3 times with FACS buffer after each incubation step. Cells were gated on viable cells and singlet discrimination (FSC-A/FSC-H) was performed before assessment of antigen expression. Semiquantitative assessment of GPC2 antigen density in molecules per cell was estimated using the BD Quantibrite Kit per the manufacturer's protocol.

[2] = target: T2, recombinant murine GPC2 (R&D Systems) (mouse, UniProt Q8BKV1 22-556, limits assumed, labelled with Dylight488 in the flow cytometry assay of FIG. 9B; unlabelled in the ELISA); assay: flow cytometry, CAR T cells stained with Dylight488-labelled murine GPC2
T2 construct: Bought recombinant protein; also called mGPC2; mouse GPC2
T2 sequence (looked up): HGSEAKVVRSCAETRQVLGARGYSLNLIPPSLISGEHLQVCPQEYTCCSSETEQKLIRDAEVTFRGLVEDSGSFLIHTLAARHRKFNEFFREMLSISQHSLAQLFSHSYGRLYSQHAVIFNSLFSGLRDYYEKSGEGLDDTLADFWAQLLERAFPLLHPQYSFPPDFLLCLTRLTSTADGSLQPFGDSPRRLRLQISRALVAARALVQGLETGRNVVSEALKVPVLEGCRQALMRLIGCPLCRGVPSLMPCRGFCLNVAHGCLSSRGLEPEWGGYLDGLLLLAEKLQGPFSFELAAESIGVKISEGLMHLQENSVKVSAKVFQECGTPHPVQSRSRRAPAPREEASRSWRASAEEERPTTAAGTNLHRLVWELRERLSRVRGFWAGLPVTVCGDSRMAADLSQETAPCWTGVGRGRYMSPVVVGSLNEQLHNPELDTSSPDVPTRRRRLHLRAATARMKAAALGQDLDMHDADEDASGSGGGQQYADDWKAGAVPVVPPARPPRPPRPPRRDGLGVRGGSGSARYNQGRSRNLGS

[3] = target: T1, recombinant human GPC2 (R&D Systems); assay: ELISA, antigen coated on plate, anti-human Fc-HRP detection
Description: (§1) Fully human GPC2.19-IgG1 antibody was transiently expressed in 293 FreeStyle cells. Antibody was isolated from culture supernatant using protein A beads (Fisher). Isolated antibody was washed using PBS and Amicon […] filter columns. Binding of GPC2.19-IgG1 to GPC2 antigen was measured via ELISA. Recombinant human and mouse GPC2 antigens were purchased from R&D Systems, dry milk was from BioRad. All other chemicals were biological grade. High absorbance 96-well ELISA plates were coated with antigen overnight using […] stock solution per well at 2 μg/ml. Experiments were performed at 4° C. Antigen coated plates were blocked using 3% milk in PBS and 0.5% TWEEN® 20 for 2 h. Blocked plates were incubated with one of the tested primary antibodies for 1 hour, washed 5 times (BioTek plate washer) and incubated with anti-human Fc-HRP (Sigma) as the secondary antibody for 1 hour. Secondary antibody was washed five times, the HRP substrate TMB (Sigma) was added and plate was incubated for 3 minutes. TMB oxidation was stopped with 2.5 M sulfuric acid. Plates' absorbance was measured on plate reader (BioRad) at 415 nm.

[4] = target: T2, recombinant murine GPC2 (R&D Systems); assay: as above
Description: as §1

B1: GPC2.27 CAR in VH-L-VL orientation with CD8a hinge-transmembrane domain and 41BBz signaling domain (other)
chain: EVQLVESGPGLVKPSETLSLTCAVSGYSISSGYYWGWIRQPPGKGLEWIGSIYHSGSTYYNPSLKSRVTISVDTSKNQFSLKLSSVTAADTAVYYCASLPSRGGFDYWGQGTLVTVSSGGGGSGGGASGGGGSEIVMTQSPATLSASVGDRVTIACRASQTISRYLNWYQQKPGKAPKLLIYAASSLQSGVSSRFSGSGSGTEFTLTISSLQPEDFATYFCQQTYSPPITFGQGTRLEIKRATTTPAPRPPTPAPTIASQPLSLRPEACRPAAGGAVHTRGLDFACDIYIWAPLAGTCGVLLLSLVITLYCKRGRKKLLYIFKQPFMRPVQTTQEEDGCSCRFPEEEEGGCELRVKFSRSADAPAYKQGQNQLYNELNLGRREEYDVLDKRRGRDPEMGGKPRRKNPQEGLYNELQKDKMAEAYSEIGMKGERRRGKGHDGLYQGLSTATKDTYDALHMQALPPR
notes: also called GPC2.27 VH-L-VL CAR
- binding result [1]: binds

B2: GPC2.19VLVH.28H-28TM.41BBz (other)
chain: DIQMTQSPSSLSASIGDRVTITCQASQDISDYLNWYQQKPGKAPKLLIYDASNLETGVPSRFSGSGSGTDFTFTISSLQPEDVATYYCQQYDNLPITFGQGTKLEIKRGGGGSGGGASGGGGSQLQLQESGPGLVKPSETLSLTCTVSGGSISSSSYYWSWIRQPPGKGLEWIGSIYYSGSTYYNPSLKSRVTISVDTSKNQFSLKLSSVTAADTAVYYCARRVSGHPFDPWGQGTLVTVSSAAAIEVMYPPPYLDNEKSNGTIIHVKGKHLCPSPLFPGPSKPFWVLVVVGGVLACYSLLVTVAFIIFWVKRGRKKLLYIFKQPFMRPVQTTQEEDGCSCRFPEEEEGGCELRVKFSRSADAPAYKQGQNQLYNELNLGRREEYDVLDKRRGRDPEMGGKPRRKNPQEGLYNELQKDKMAEAYSEIGMKGERRRGKGHDGLYQGLSTATKDTYDALHMQALPPR
notes: also called GPC2.19 CAR with CD28 hinge-transmembrane domains and 41BB costimulatory domain
- binding result [1]: binds

B3: GPC2.19VLVH.8aH-8aTM.41BBz (other)
chain: DIQMTQSPSSLSASIGDRVTITCQASQDISDYLNWYQQKPGKAPKLLIYDASNLETGVPSRFSGSGSGTDFTFTISSLQPEDVATYYCQQYDNLPITFGQGTKLEIKRGGGGSGGGASGGGGSQLQLQESGPGLVKPSETLSLTCTVSGGSISSSSYYWSWIRQPPGKGLEWIGSIYYSGSTYYNPSLKSRVTISVDTSKNQFSLKLSSVTAADTAVYYCARRVSGHPFDPWGQGTLVTVSSATTTPAPRPPTPAPTIASQPLSLRPEACRPAAGGAVHTRGLDFACDIYIWAPLAGTCGVLLLSLVITLYCKRGRKKLLYIFKQPFMRPVQTTQEEDGCSCRFPEEEEGGCELRVKFSRSADAPAYKQGQNQLYNELNLGRREEYDVLDKRRGRDPEMGGKPRRKNPQEGLYNELQKDKMAEAYSEIGMKGERRRGKGHDGLYQGLSTATKDTYDALHMQALPPR
notes: also called GPC2.19 CAR; GPC2.8aTM.41BBz CAR
- binding result [1]: binds
- binding result [2]: binds

B4: GPC2.19-IgG1 (antibody, V domains shown)
VH: QLQLQESGPGLVKPSETLSLTCTVSGGSISSSSYYWSWIRQPPGKGLEWIGSIYYSGSTYYNPSLKSRVTISVDTSKNQFSLKLSSVTAADTAVYYCARRVSGHPFDPWGQGTLVTVSS
VL: DIQMTQSPSSLSASIGDRVTITCQASQDISDYLNWYQQKPGKAPKLLIYDASNLETGVPSRFSGSGSGTDFTFTISSLQPEDVATYYCQQYDNLPITFGQGTKLEIKR
notes: also called GPC2.IgG1; fully human GPC2.19-IgG1 antibody
- EC50 [3]: ~1 nM
- EC50 [4]: ~1 nM

B5: GPC2.27 CAR in VL-L-VH orientation with CD8a hinge-transmembrane domain and 41BBz signaling domain (other)
chain: EIVMTQSPATLSASVGDRVTIACRASQTISRYLNWYQQKPGKAPKLLIYAASSLQSGVSSRFSGSGSGTEFTLTISSLQPEDFATYFCQQTYSPPITFGQGTRLEIKRGGGGSGGGASGGGGSEVQLVESGPGLVKPSETLSLTCAVSGYSISSGYYWGWIRQPPGKGLEWIGSIYHSGSTYYNPSLKSRVTISVDTSKNQFSLKLSSVTAADTAVYYCASLPSRGGFDYWGQGTLVTVSSATTTPAPRPPTPAPTIASQPLSLRPEACRPAAGGAVHTRGLDFACDIYIWAPLAGTCGVLLLSLVITLYCKRGRKKLLYIFKQPFMRPVQTTQEEDGCSCRFPEEEEGGCELRVKFSRSADAPAYKQGQNQLYNELNLGRREEYDVLDKRRGRDPEMGGKPRRKNPQEGLYNELQKDKMAEAYSEIGMKGERRRGKGHDGLYQGLSTATKDTYDALHMQALPPR
notes: also called GPC2.27 VL-L-VH CAR
- binding result [1]: binds

B6: GPC2.19 CAR in VH-L-VL orientation with CD8a hinge-transmembrane domain and 41BBz signaling domain (other)
chain: QLQLQESGPGLVKPSETLSLTCTVSGGSISSSSYYWSWIRQPPGKGLEWIGSIYYSGSTYYNPSLKSRVTISVDTSKNQFSLKLSSVTAADTAVYYCARRVSGHPFDPWGQGTLVTVSSGGGGSGGGASGGGGSDIQMTQSPSSLSASIGDRVTITCQASQDISDYLNWYQQKPGKAPKLLIYDASNLETGVPSRFSGSGSGTDFTFTISSLQPEDVATYYCQQYDNLPITFGQGTKLEIKRATTTPAPRPPTPAPTIASQPLSLRPEACRPAAGGAVHTRGLDFACDIYIWAPLAGTCGVLLLSLVITLYCKRGRKKLLYIFKQPFMRPVQTTQEEDGCSCRFPEEEEGGCELRVKFSRSADAPAYKQGQNQLYNELNLGRREEYDVLDKRRGRDPEMGGKPRRKNPQEGLYNELQKDKMAEAYSEIGMKGERRRGKGHDGLYQGLSTATKDTYDALHMQALPPR
notes: also called GPC2.19 VH-L-VL CAR
- binding result [1]: binds

B7: GPC2.19VLVH.28H-28TM.28z (other)
chain: DIQMTQSPSSLSASIGDRVTITCQASQDISDYLNWYQQKPGKAPKLLIYDASNLETGVPSRFSGSGSGTDFTFTISSLQPEDVATYYCQQYDNLPITFGQGTKLEIKRGGGGSGGGASGGGGSQLQLQESGPGLVKPSETLSLTCTVSGGSISSSSYYWSWIRQPPGKGLEWIGSIYYSGSTYYNPSLKSRVTISVDTSKNQFSLKLSSVTAADTAVYYCARRVSGHPFDPWGQGTLVTVSSAAAIEVMYPPPYLDNEKSNGTIIHVKGKHLCPSPLFPGPSKPFWVLVVVGGVLACYSLLVTVAFIIFWVRSKRSRLLHSDYMNMTPRRPGPTRKHYQPYAPPRDFAAYRSRVKFSRSADAPAYQQGQNQLYNELNLGRREEYDVLDKRRGRDPEMGGKPRRKNPQEGLYNELQKDKMAEAYSEIGMKGERRRGKGHDGLYQGLSTATKDTYDALHMQALPPR
notes: also called GPC2.28TM.28z CAR; GPC2.19 CAR with CD28 hinge-transmembrane domains and CD28 costimulatory domain
- binding result [1]: binds
